From patent US11753479B2, “Nucleic acids encoding anti-OX40L antibodies” (Kymab Limited, priority 2014, dated 2023)
Each block holds one molecule with its values, some of them ahead of it.

Target: T1, hOX40L expressed on CHO-S cells (Homo sapiens, UniProt P23510)
T1 construct: expressed in transfected cells
T1 sequence (P23510 1-183): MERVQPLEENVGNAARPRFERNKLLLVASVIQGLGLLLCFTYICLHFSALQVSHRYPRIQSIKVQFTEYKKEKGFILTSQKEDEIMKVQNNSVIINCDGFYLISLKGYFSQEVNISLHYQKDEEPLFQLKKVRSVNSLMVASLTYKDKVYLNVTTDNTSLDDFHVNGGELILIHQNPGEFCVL
Test: Binding to CHO-S expressed hOX40L (FACS)
Conditions: binding to CHO-S expressed hOX40L by FACS
Protocol: To determine whether wells selected using the primary screen selection criteria had the required characteristics set by the inventors, a number of assays were performed. Hybridoma clones selected as hits from primary screening were cultured for 3 days and the supernatants collected from hybridoma cells were tested to assess whether the secreted antibodies that bind to CHO-S expressed hOX40L, in some case bind to untransfected CHO-S cells and whether they neutralise recombinant OX40R Fc binding to CHO-S hOX40L and ability to neutralise OX40R binding to recombinant biotinylated hOX40L.
CHO-S cells expressing hOX40L or untransfected CHO-S cells, diluted in FACS buffer (PBS+1% w/v BSA+0.1% w/v NaN3) were distributed to a 96 well V-bottom plate (Greiner) at a density of 1×10^5 cells per well. Cells were washed with 150 μL of PBS and centrifuged at 300×g for 3 min. Supernatant was aspirated and 150 μL of PBS added. This wash step was repeated.
25 μL of hybridoma supernatant or purified antibody from hybridoma supernatant diluted in FACS buffer was added to the washed cells and incubated for 10-15 minutes. Reference Antibody or mouse IgG1 control antibody (Sigma) were diluted in FACS buffer to 20 μg/mL and 25 μL added to cells. 25 μL of human OX40R Fc (in-house) diluted to 1000 ng/mL in FACS buffer were then added to wells. Cells were incubated at 4° C. for 30 minutes.
Cells were washed twice with 150 μL of PBS centrifuging after each wash step and aspirating supernatant (centrifuged at 300×g for 3 minutes). […]
To fix cells 100 μL 2% v/v paraformaldehyde was added and cells incubated for 30 minutes at 4° C., cells were pelleted by centrifugation 300×g and the plates and resuspended in 50 μL of FACS buffer. PE and APC signal intensity (geomean) was measured by flow cytometry using a BD FACS Array instrument.
% of control binding was calculated using geomean fluorescence as described in equation 1 where total binding was defined as reference antibody at 10 μg/mL and non-specific binding as mouse IgG1 antibody at 10 μg/mL. % receptor binding was calculated using Equation 3. […]

FACS Binding: YES
B1: 10A07 (hybridoma): murine/human chimeric anti-OX40L antibody 10A07 purified from hybridoma supernatant (antibody, V domains shown)
VH: EVQLVESGGVLVQPGGSLRLSCAASGFTFSSYIMTWVRQAPGKGLEWVSGISGSGGGTYYADSMKGRFTISRDNSKNTLYLQMNSLRVEDTAVYYCAKDRLGPITLVRGGYYYGMDVWGQGTTVTVSS
VL: DIQMTQSPSSLSASVGDRVTITCRASQSISDYLNWYQQKPGKAPKFLIYAASSLQSGVPSRFSGSGSGTDFTLTVSSLQPEDFATYYCQQSYSTPRTFGQGTRVEIK

FACS Binding: YES
B2: 9H04 (hybridoma): murine/human chimeric anti-OX40L antibody purified from hybridoma supernatant (protein, listed as Homo Sapiens)
chain: QVQLVESGGGLVKPGGSLRLSCAASRFTLSDYYMTWIRQAPGKGLEWVSYISSSGNTIYYADSVKGRFTISRDNAKNSLYLQMNSLRAEDTAVYYCARDLSGSYWDYYYGMDVWGQGTTVTVSS
modifications: VH only; VL and constant regions missing
notes: murine/human chimeric anti-OX40L antibody purified from hybridoma supernatant

FACS Binding: YES
B3: 2D10 (hybridoma): murine/human chimeric anti-OX40L antibody 2D10 purified from hybridoma supernatant (antibody, V domains shown)
VH: EVQLVESGGGLVQPGGSLRLSCAASGFTFSNYAMNWVRQAPGKGLEWVSTISGSGGATRYADSVKGRFTISRDNSRNTVYLQMNSLRVEDTAVFYCTKDRLIMATVRGPYYYGMDVWGQGTTVTVSS
VL: DIQMTQSPSSLSASVGDRVTITCRASQSISSYLNWYQQKPGKAPNLLIYAASSLQSGVPSRFSGSGSETDFTLTISSLQPEDFATYYCQQSHSVSFTFGPGTKVDIK
